Experimental data published in publication doi:10.1101/580712.

Molecular target: human Macrophage Expressed Gene-1 (MPEG-1) soluble ectodomain, wild type (human) (UniProt Q2M385)
Experiment: cryo-EM structure

## human Macrophage Expressed Gene-1 (MPEG-1) soluble ectodomain, wild type (from UniProt Q2M385 17-653) (domain or fragment)
  stoichiometry N (subunits per ring): 16
